Measured values taken from article PMC12366243, “Genomic context analysis enables the discovery of an unusual NAD‐dependent racemase in phosphonate catabolism” (The Febs Journal, 2025).

What was measured:
[1] = test system: T1, NC(=O)c1ccc[n+]([C@@H]2O[C@H](COP(=O)(O)OP(=O)(O)OC[C@H]3O[C@@H](n4cnc5c(N)ncnc54)[C@H](O)[C@@H]3O)[C@@H](O)[C@H]2O)c1; experiment: purified protein; format: biochemical, Mesorhizobium plurifarium; conditions: 1 mM S-HAEP, 5 mM MgCl2, 50 mM TEA-HCl pH 8.0, 25 °C, exogenous NAD+, varied: cofactor
T1 construct: full-length, codon-optimized synthetic gene in pET24-C-His-tag (NdeI/NotI), C-terminal His tag kept; E. coli Tuner (DE3)

NC[C@@H](O)P(=O)(O)O = test system: T2, NC[C@@H](O)P(=O)(O)O; experiment: purified protein; format: biochemical, Mesorhizobium plurifarium; conditions: 1 mM NAD+, 5 mM MgCl2, 50 mM TEA-HCl pH 8.0, 25 °C, S-HAEP to R-HAEP
T2 construct: full-length, codon-optimized synthetic gene in pET24-C-His-tag (NdeI/NotI), C-terminal His tag kept; E. coli Tuner (DE3)

[2] = target: 2-amino-1-hydroxyethylphosphonate racemase (PbfF) from Mesorhizobium plurifarium (Mesorhizobium plurifarium); experiment: SEC; analytical SEC, data not shown; 50 uL of 108 uM PbfF (monomer concentration) on Superdex 200 Increase 5/150 GL; 50 mM Tris, 200 mM NaCl, pH 7.9; 0.3 mL/min; calibrated with proteins of known molecular mass
[3] = target: T3, PbfF (2-amino-1-hydroxyethylphosphonate racemase; HAEP racemase) (Mesorhizobium plurifarium, UniProt A0A090EUR6); experiment: continuous coupled assay (PbfA, PhnX, NADP-dependent ADH), NADPH decrease at […] nm; format: biochemical
T3 construct: full-length, codon-optimized synthetic gene in pET24-C-His-tag (NdeI/NotI), C-terminal His tag kept; E. coli Tuner (DE3)
T3 sequence (A0A090EUR6 1-336): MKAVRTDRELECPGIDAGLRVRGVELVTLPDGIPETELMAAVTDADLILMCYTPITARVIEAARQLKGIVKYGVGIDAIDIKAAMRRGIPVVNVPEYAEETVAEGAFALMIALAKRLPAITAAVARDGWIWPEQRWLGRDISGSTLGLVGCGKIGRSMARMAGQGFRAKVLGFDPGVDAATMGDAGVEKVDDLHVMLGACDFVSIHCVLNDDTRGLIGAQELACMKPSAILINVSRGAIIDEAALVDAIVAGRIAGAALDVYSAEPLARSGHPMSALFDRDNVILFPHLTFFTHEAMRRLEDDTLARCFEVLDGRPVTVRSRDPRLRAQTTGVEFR

## PbfF (2-amino-1-hydroxyethylphosphonate racemase; HAEP racemase) (Mesorhizobium plurifarium)
[1]
  K0.5: 200 µM
NC[C@@H](O)P(=O)(O)O
  Km: 530 µM
  kcat: 6.6 s⁻¹

## 2-amino-1-hydroxyethylphosphonate racemase (PbfF) from Mesorhizobium plurifarium (enzyme)
[2]
  stoichiometry N: 2

## NC(=O)C1=CN([C@@H]2O[C@H](COP(=O)(O)OP(=O)(O)OC[C@H]3O[C@@H](n4cnc5c(N)ncnc54)[C@H](O)[C@@H]3O)[C@@H](O)[C@H]2O)C=CC1 [NADH]
[3]
  inhibition at 60 µM: ~50%
